Experimental data: patent publication US20200317768A1 (published 2020)

T1: cynomolgus monkey FcγRIIb extracellular domain, His-tagged (cynomolgus monkey)
T1 construct: also called cyno FcγRIIb; cynoFcγRIIb
T1 chain: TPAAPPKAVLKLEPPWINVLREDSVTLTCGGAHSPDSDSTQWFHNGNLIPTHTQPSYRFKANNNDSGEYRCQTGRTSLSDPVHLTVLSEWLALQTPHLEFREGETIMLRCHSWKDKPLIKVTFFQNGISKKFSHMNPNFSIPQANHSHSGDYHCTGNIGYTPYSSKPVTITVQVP

T2: cynomolgus monkey FcγRIIa3 extracellular domain, His-tagged (cynomolgus monkey)
T2 construct: also called cyno FcγRIIa3; cynoFcgRIIa3
T2 chain: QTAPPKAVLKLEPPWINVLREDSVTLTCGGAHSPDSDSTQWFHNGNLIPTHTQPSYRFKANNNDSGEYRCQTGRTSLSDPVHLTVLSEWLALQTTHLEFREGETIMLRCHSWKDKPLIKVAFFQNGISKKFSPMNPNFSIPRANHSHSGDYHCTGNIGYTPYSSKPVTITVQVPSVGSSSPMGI

T3: human FcγRIIaR extracellular domain, His-tagged (human, UniProt P12318 34-217)
T3 construct: also called human FcγRIIa (type R); FcgRIIaR
T3 chain: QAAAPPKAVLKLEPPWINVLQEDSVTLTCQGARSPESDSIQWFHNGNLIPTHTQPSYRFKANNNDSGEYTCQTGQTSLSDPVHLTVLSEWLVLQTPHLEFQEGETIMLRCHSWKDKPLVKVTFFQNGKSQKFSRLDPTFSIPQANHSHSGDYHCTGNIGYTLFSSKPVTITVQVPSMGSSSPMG

T4: cynomolgus monkey FcγRIIIaS extracellular domain, His-tagged (cynomolgus monkey, UniProt Q8SPW2 21-206 at identity 1.00))
T4 construct: also called cyno FcγRIIIaS; cynoFcγRIIIaS
T4 chain: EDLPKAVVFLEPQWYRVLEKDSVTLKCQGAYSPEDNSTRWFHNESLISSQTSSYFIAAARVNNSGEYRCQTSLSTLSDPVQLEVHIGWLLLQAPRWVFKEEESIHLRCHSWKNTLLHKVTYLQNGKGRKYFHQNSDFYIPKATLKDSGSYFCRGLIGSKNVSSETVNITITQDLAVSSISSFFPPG

T5: cynomolgus monkey FcγRIIa2 extracellular domain, His-tagged (cynomolgus monkey)
T5 construct: also called cyno FcγRIIa2; cynoFcgRIIa2
T5 chain: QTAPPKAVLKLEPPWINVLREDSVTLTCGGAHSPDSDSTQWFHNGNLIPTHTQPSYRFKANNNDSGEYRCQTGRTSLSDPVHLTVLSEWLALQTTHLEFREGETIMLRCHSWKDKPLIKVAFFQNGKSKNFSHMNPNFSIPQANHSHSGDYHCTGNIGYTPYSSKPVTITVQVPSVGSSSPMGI

T6: human FcγRIIb extracellular domain, His-tagged (human, UniProt P31994 43-217)
T6 construct: also called FcgRIIb (human)
T6 sequence: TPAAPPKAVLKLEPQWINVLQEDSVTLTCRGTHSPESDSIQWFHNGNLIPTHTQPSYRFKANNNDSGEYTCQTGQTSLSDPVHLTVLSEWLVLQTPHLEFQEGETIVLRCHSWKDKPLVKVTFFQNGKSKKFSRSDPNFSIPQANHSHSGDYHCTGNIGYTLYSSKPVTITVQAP

T7: cynomolgus monkey FcγRIIa1 extracellular domain, His-tagged (cynomolgus monkey)
T7 construct: also called cyno FcγRIIa1; cynoFcgRIIa1
T7 chain: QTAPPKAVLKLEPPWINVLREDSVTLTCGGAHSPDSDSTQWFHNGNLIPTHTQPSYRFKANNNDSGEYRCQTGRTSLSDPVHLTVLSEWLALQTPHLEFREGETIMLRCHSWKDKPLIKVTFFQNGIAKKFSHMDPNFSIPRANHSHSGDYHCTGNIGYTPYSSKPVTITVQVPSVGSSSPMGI

T8: human FcγRIIaH extracellular domain, His-tagged (human, UniProt P12318 34-217)
T8 construct: also called human FcγRIIa (type H); FcgRIIaH
T8 sequence: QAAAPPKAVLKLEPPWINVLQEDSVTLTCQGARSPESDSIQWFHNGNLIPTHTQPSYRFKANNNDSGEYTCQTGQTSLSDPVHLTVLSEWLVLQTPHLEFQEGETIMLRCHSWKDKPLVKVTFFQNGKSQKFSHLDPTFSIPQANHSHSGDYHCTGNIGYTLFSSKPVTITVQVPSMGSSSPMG


How the values were obtained:
Experiment in all cases: SPR, antibody captured, FcgR analyte
[1] = molecular target: T1, cynomolgus monkey FcγRIIb extracellular …
[2] = molecular target: T9, human FcγRIIIaV extracellular domain, His-tagged (human, UniProt P08637 17-208)
T9 construct: also called FcgRIIIaV
T9 sequence (P08637 17-208 F176V): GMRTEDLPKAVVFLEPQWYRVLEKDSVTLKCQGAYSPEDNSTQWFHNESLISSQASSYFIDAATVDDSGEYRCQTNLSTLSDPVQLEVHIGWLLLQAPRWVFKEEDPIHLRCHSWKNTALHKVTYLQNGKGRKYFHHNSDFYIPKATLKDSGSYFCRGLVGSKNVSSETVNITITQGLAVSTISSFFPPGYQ

[3] = molecular target: T2, cynomolgus monkey FcγRIIa3 …
[4] = molecular target: T3, human FcγRIIaR extracellular domain, …
[5] = molecular target: T4, cynomolgus monkey FcγRIIIaS …
[6] = molecular target: T5, cynomolgus monkey FcγRIIa2 …
[7] = molecular target: T6, human FcγRIIb extracellular domain, …
[8] = molecular target: T7, cynomolgus monkey FcγRIIa1 …
[9] = molecular target: T8, human FcγRIIaH extracellular domain, …

| Kd [1] | Kd [2] | Kd [3] | Kd [4] | Kd [5] | Kd [6] | Kd [7] | Kd [8] | Kd [9] | Binder |
| --- | --- | --- | --- | --- | --- | --- | --- | --- | --- |
| 1.1 µM | 0.22 µM | 59 µM | 0.68 µM | 0.12 µM | 2.8 µM | 2.4 µM | 2.4 µM | 0.5 µM | M103205H795-MY064/M103202L889-SK1 (antibody, human IgG1, kappa, Substitution put into M103205H795-SG1) heavy: not shown light: DIVMTQSPATLSLSPGERATLSCTSSQSVYHANWLSWFQQKPGQPPKLLIYWASTLAYGVPSRFSGSGSGTDFTLTISSLQPEDAATYYCAGGYGGGRYAFGQGTKVEIKRTVAAPSVFIFPPSDEQLKSGTASVVCLLNNFYPREAKVQWKVDNALQSGNSQESVTEQDSKDSTYSLSSTLTLSKADYEKHKVYACEVTHQGLSSPVTKSFNRGEC |
| 1.2 µM | 0.7 µM | 4.7 µM | 0.74 µM | 0.49 µM | 2.5 µM | 2.6 µM | 2.3 µM | 0.5 µM | M103205H795-MY070/M103202L889-SK1 (antibody, human IgG1, kappa, Substitution put into M103205H795-SG1) heavy: not shown light: DIVMTQSPATLSLSPGERATLSCTSSQSVYHANWLSWFQQKPGQPPKLLIYWASTLAYGVPSRFSGSGSGTDFTLTISSLQPEDAATYYCAGGYGGGRYAFGQGTKVEIKRTVAAPSVFIFPPSDEQLKSGTASVVCLLNNFYPREAKVQWKVDNALQSGNSQESVTEQDSKDSTYSLSSTLTLSKADYEKHKVYACEVTHQGLSSPVTKSFNRGEC |
| 2.4 µM | 2.2 µM | 23 µM | 1.3 µM | 0.6 µM | 3 µM | 6.2 µM | 2.5 µM | 0.48 µM | M103205H795-MY196/M103202L889-SK1 (antibody, human IgG1, kappa, Substitution put into M103205H795-SG1) heavy: not shown light: DIVMTQSPATLSLSPGERATLSCTSSQSVYHANWLSWFQQKPGQPPKLLIYWASTLAYGVPSRFSGSGSGTDFTLTISSLQPEDAATYYCAGGYGGGRYAFGQGTKVEIKRTVAAPSVFIFPPSDEQLKSGTASVVCLLNNFYPREAKVQWKVDNALQSGNSQESVTEQDSKDSTYSLSSTLTLSKADYEKHKVYACEVTHQGLSSPVTKSFNRGEC |
| 2.5 µM | 0.51 µM | 9.2 µM | 0.45 µM | 0.28 µM | 3.7 µM | 8.1 µM | 5 µM | 0.4 µM | M103205H795-MY071/M103202L889-SK1 (antibody, human IgG1, kappa, Substitution put into M103205H795-SG1) heavy: not shown light: DIVMTQSPATLSLSPGERATLSCTSSQSVYHANWLSWFQQKPGQPPKLLIYWASTLAYGVPSRFSGSGSGTDFTLTISSLQPEDAATYYCAGGYGGGRYAFGQGTKVEIKRTVAAPSVFIFPPSDEQLKSGTASVVCLLNNFYPREAKVQWKVDNALQSGNSQESVTEQDSKDSTYSLSSTLTLSKADYEKHKVYACEVTHQGLSSPVTKSFNRGEC |
| 0.67 µM | 0.34 µM | 5.1 µM | 0.5 µM | 0.17 µM | 1.3 µM | 2 µM | 1.2 µM | 0.24 µM | M103205H795-MY073/M103202L889-SK1 (antibody, human IgG1, kappa, Substitution put into M103205H795-SG1) heavy: not shown light: DIVMTQSPATLSLSPGERATLSCTSSQSVYHANWLSWFQQKPGQPPKLLIYWASTLAYGVPSRFSGSGSGTDFTLTISSLQPEDAATYYCAGGYGGGRYAFGQGTKVEIKRTVAAPSVFIFPPSDEQLKSGTASVVCLLNNFYPREAKVQWKVDNALQSGNSQESVTEQDSKDSTYSLSSTLTLSKADYEKHKVYACEVTHQGLSSPVTKSFNRGEC |
| 1.3 µM | 0.23 µM | 4.2 µM | 0.51 µM | 0.11 µM | 2.8 µM | 1.9 µM | 2.3 µM | 0.52 µM | M103205H795-MY065/M103202L889-SK1 (antibody, human IgG1, kappa, Substitution put into M103205H795-SG1) heavy: not shown light: DIVMTQSPATLSLSPGERATLSCTSSQSVYHANWLSWFQQKPGQPPKLLIYWASTLAYGVPSRFSGSGSGTDFTLTISSLQPEDAATYYCAGGYGGGRYAFGQGTKVEIKRTVAAPSVFIFPPSDEQLKSGTASVVCLLNNFYPREAKVQWKVDNALQSGNSQESVTEQDSKDSTYSLSSTLTLSKADYEKHKVYACEVTHQGLSSPVTKSFNRGEC |
| 0.73 µM | 0.24 µM | 6.5 µM | 0.39 µM | 0.086 µM | 1.6 µM | 1.6 µM | 1.6 µM | 0.44 µM | M103205H795-MY069/M103202L889-SK1 (antibody, human IgG1, kappa, Substitution put into M103205H795-SG1) heavy: not shown light: DIVMTQSPATLSLSPGERATLSCTSSQSVYHANWLSWFQQKPGQPPKLLIYWASTLAYGVPSRFSGSGSGTDFTLTISSLQPEDAATYYCAGGYGGGRYAFGQGTKVEIKRTVAAPSVFIFPPSDEQLKSGTASVVCLLNNFYPREAKVQWKVDNALQSGNSQESVTEQDSKDSTYSLSSTLTLSKADYEKHKVYACEVTHQGLSSPVTKSFNRGEC |
| 0.48 µM | 0.12 µM | 2.6 µM | 0.48 µM | 0.053 µM | 1.2 µM | 1.5 µM | 1 µM | 0.25 µM | M103205H795-MY072/M103202L889-SK1 (antibody, human IgG1, kappa, Substitution put into M103205H795-SG1) heavy: not shown light: DIVMTQSPATLSLSPGERATLSCTSSQSVYHANWLSWFQQKPGQPPKLLIYWASTLAYGVPSRFSGSGSGTDFTLTISSLQPEDAATYYCAGGYGGGRYAFGQGTKVEIKRTVAAPSVFIFPPSDEQLKSGTASVVCLLNNFYPREAKVQWKVDNALQSGNSQESVTEQDSKDSTYSLSSTLTLSKADYEKHKVYACEVTHQGLSSPVTKSFNRGEC |
| 1 µM | 1.4 µM | 5.7 µM | 0.52 µM | 0.58 µM | 2.7 µM | 2.1 µM | 2.1 µM | 0.37 µM | M103205H795-MY068/M103202L889-SK1 (antibody, human IgG1, kappa, Substitution put into M103205H795-SG1) heavy: not shown light: DIVMTQSPATLSLSPGERATLSCTSSQSVYHANWLSWFQQKPGQPPKLLIYWASTLAYGVPSRFSGSGSGTDFTLTISSLQPEDAATYYCAGGYGGGRYAFGQGTKVEIKRTVAAPSVFIFPPSDEQLKSGTASVVCLLNNFYPREAKVQWKVDNALQSGNSQESVTEQDSKDSTYSLSSTLTLSKADYEKHKVYACEVTHQGLSSPVTKSFNRGEC |
| 2.2 µM | 5.2 µM | 12 µM | 0.52 µM | 1.3 µM | 3.1 µM | 9.2 µM | 2.6 µM | 0.14 µM | M103205H795-MY124/M103202L889-SK1 (antibody, human IgG1, kappa, Substitution put into M103205H795-SG1) heavy: not shown light: DIVMTQSPATLSLSPGERATLSCTSSQSVYHANWLSWFQQKPGQPPKLLIYWASTLAYGVPSRFSGSGSGTDFTLTISSLQPEDAATYYCAGGYGGGRYAFGQGTKVEIKRTVAAPSVFIFPPSDEQLKSGTASVVCLLNNFYPREAKVQWKVDNALQSGNSQESVTEQDSKDSTYSLSSTLTLSKADYEKHKVYACEVTHQGLSSPVTKSFNRGEC |
